Results from patent US20240084044A1, “Heteromultivalent Nucleic Acid Scaffolds and Uses Thereof” (George Mason University, priority 2022, published 2024).
Bridges are numbered along the chain shown (N, C = ends). Roman numbers before positions name the chains, in order. [ ]: non-standard residue; d: D form. Lys(N3) = [N-]=[N+]=NCCCC[C@H](N)C(=O)O

Columns and labels:
[1] = target: ST2/IL-33 binary complex (recombinant FLAG-tagged ST2 extracellular domain with recombinant mature IL-33) (UniProt Q01638); assay: SPR (OpenSPR), FLAG-ST2 captured on anti-FLAG mAb and loaded with 50 nM IL-33, IL1RAcP as analyte, 1:1 fit; native IL-1RAcP as analyte
ST2/IL-33 binary complex = target: T1, ST2/IL-33 binary complex (Homo sapiens, UniProt O95760+Q01638); assay: SPR dissociation constant for the ST2/IL-33 binary complex; type: binding; conditions: SPR, 1:1 fit; read-out: KD to the binary ST2/IL-33 complex
T1 construct: included the extracellular domains, K19-F328 and S21-E359, respectively; the cleaved mature proteins, S112-T270, A117-S269, and R2-S310, respectively; purchased Sino Biologicals ST2 10105-HCCH; IL-33 10368-HNAE; host or cells: ST2: HEK293; IL-33: E. coli
T1 sequence (Q01638 19-328 isoform Q01638-2): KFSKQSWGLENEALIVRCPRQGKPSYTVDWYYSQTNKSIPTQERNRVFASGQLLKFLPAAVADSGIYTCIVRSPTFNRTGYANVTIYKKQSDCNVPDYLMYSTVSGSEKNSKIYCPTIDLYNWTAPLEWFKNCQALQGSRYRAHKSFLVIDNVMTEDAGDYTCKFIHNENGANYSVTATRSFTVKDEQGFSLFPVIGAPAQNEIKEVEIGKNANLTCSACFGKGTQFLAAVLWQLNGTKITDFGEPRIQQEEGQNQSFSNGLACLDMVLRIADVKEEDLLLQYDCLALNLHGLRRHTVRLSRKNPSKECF
T1 sequence (O95760 112-270): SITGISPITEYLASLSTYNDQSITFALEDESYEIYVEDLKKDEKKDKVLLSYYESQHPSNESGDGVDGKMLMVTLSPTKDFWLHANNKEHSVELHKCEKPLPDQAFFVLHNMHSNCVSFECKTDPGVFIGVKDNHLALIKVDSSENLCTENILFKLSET
Description: Recombinant ST2 with truncated FLAG (DDDDK) tag (Cat. #10105-HCCH), His-tagged IL1RAcP (Cat. #10121-H08H), IL-33 (Cat. #10368-HNAE), IL-1β (Cat. #10139-HNAE), and FLAG-tagged SIRT5 (Cat. #19202-H22E) were purchased from Sino Biologicals (Wayne, PA). ST2 and IL1RAcP were expressed in HEK293 cells and included the extracellular domains, K19-F328 and S21-E359, respectively. IL-33, IL-1β, and SIRT5 were expressed in E. coli and included the residue sequence of the cleaved mature proteins, S112-T270, A117-S269, and R2-S310, respectively. Lyophilized ST2, and IL1RAcP were reconstituted in ultrapure (18.5 MΩ) water to a concentration of 0.5 mg/mL (5.6 μM) and stored at −80° C. until use. SIRT5 was reconstituted to 0.2 mg/mL (2.87 μM). To prevent oxidation, IL-33 was reconstituted in 10 mM β-mercaptoethanol (Sigma-Aldrich) to a concentration of 0.1 mg/mL and IL-1β was reconstituted to 0.250 mg/mL. All peptides were purchased from Peptide 2.0 (Chantilly, VA) and designed based on IL1RAcP hotspot residues known to interact with IL-33/ST2 and surrounding residues based on the canonical sequence of IL1RAcP (Uniprot #Q9NPH3). All peptides were modified with acetylated N-terms and amidated C-terms to optimize stability and cyclic peptides cyclized via thioether or disulfide bond. Candidate peptides for the final molecule were also modified with an azido-Lysine and additional N-term alanine or cysteine, to provide the azide group for copper free click chemistry and maintain cyclization. Peptides were stored at −20° C. in lyophilized aliquots of 100 μg or 200 μg and −80° C. after reconstitution in sterile DMSO to a concentration of 10 mM.
SPR experiments were carried out on an OpenSPR instrument (Nicoya). Gold nanoparticle sensor chips (Nicoya) were functionalized by incubation in a solution of ethanol and 10 mM 11-Mercaptoundecanoic acid (MUDA) at RT for a minimum of 48 h, then stored in ethanol at 4° C. until use. Chips were activated with a solution of 200 mM EDC and 50 mM NHS for 3 m at RT. […] Data was analyzed with TraceDrawer software to a 1:1 fit model.

[2] = target: ST2/IL-33 binary complex (recombinant FLAG-tagged ST2 extracellular domain with recombinant mature IL-33) (UniProt Q01638); assay: SPR (OpenSPR): FLAG-ST2 captured on anti-FLAG mAb and loaded with IL-33, peptide as analyte, 1:1 fit; five sensorgrams, the highest to about 300 RU
[3] = target: ST2/IL-33 binary complex (recombinant FLAG-tagged ST2 extracellular domain with recombinant mature IL-33) (UniProt Q01638); assay: SPR (OpenSPR): FLAG-ST2 captured on anti-FLAG mAb and loaded with IL-33, peptide as analyte, 1:1 fit; five sensorgrams, the highest to about 350 RU
[4] = target: ST2/IL-33 binary complex (recombinant FLAG-tagged ST2 extracellular domain with recombinant mature IL-33) (UniProt Q01638); assay: SPR (OpenSPR): FLAG-ST2 captured on anti-FLAG mAb and loaded with IL-33, peptide as analyte, 1:1 fit; five sensorgrams, the highest to about 390 RU
ST2 = target: T2, ST2 (Homo sapiens, UniProt Q01638); conditions: reported value; read-out: Kd of ST2/IL-33 binary complex; cited from earlier work
T2 sequence (Q01638 19-556): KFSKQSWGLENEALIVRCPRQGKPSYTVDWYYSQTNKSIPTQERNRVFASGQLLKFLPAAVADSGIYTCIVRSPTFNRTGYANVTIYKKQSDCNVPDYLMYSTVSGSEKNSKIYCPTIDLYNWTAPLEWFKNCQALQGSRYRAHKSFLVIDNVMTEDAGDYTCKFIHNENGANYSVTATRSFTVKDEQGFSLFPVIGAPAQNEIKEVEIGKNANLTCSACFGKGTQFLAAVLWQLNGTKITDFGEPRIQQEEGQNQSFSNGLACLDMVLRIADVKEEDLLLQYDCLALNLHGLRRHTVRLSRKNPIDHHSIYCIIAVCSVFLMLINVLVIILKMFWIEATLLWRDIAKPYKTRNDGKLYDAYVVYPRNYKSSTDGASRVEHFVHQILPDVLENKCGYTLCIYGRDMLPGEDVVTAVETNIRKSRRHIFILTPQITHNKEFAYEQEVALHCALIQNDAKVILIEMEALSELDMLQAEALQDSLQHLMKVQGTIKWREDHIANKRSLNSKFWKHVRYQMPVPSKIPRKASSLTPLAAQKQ

[5] = target: ST2/IL-33 binary complex (recombinant FLAG-tagged ST2 extracellular domain with recombinant mature IL-33) (UniProt Q01638); assay: SPR (OpenSPR), KD compared
[6] = target: T3, IL-33/ST2 on HEK-Blue IL-33 reporter cells (recombinant IL-33 with ST2 stably expressed on the cells), Q01638; assay: cell-based or functional assay
T3 chain 1: T2 sequence (Q01638 19-556)
T3 chain 2: T1 sequence (O95760 112-270)

[7] = target: ST2/IL-33 binary complex (recombinant FLAG-tagged ST2 extracellular domain with recombinant mature IL-33) (UniProt Q01638); assay: DSS cross-linking and western blot, 10 µM MSTOP, competitor IL-1RAcP, normalised to the untreated trimer control
[8] = target: ST2/IL-33 binary complex (recombinant FLAG-tagged ST2 extracellular domain with recombinant mature IL-33) (UniProt Q01638); assay: SPR (OpenSPR), FLAG-ST2 captured on anti-FLAG mAb and loaded with IL-33, MSTOP as analyte, 1:1 fit; MSTOP as analyte
[9] = target: ST2/IL-33 binary complex (recombinant FLAG-tagged ST2 extracellular domain with recombinant mature IL-33) (UniProt Q01638); assay: SPR (OpenSPR): FLAG-ST2 captured on anti-FLAG mAb and loaded with IL-33, MSTOP as analyte, 1:1 fit; sensorgrams to about 620 RU. The text gives 195 nM.
[10] = target: ST2/IL-33 binary complex (recombinant FLAG-tagged ST2 extracellular domain with recombinant mature IL-33) (UniProt Q01638); assay: DSS cross-linking and western blot, 1 µM MSTOP, competitor IL-1RAcP
[11] = target: ST2/IL-33 binary complex (recombinant FLAG-tagged ST2 extracellular domain with recombinant mature IL-33) (UniProt Q01638); assay: DSS cross-linking and western blot, 100 nM MSTOP compared with 10 µM free WT peptides, competitor IL-1RAcP

Molecule: His-tagged IL1RAcP extracellular domain (S21-E359) (from UniProt Q9NPH3 21-359) (receptor)
- Kd [1]: 10 µM

Molecule: IL-1RAcP: recombinant His-tagged IL-1 receptor accessory protein extracellular domain S21-E359
- Kd (ST2/IL-33 binary complex): 10 µM

B1: R157 Ac-C-K(N3)-…-NH2 (S-S) (peptide)
peptide: Ac-C[Lys(N3)]EYGIQRITC-NH2
modifications: disulfide 1-11
SMILES: CC[C@H](C)[C@@H]1NC(=O)CNC(=O)[C@H](Cc2ccc(O)cc2)NC(=O)[C@H](CCC(=O)O)NC(=O)[C@H](CCCCN=[N+]=[N-])NC(=O)[C@@H](NC(C)=O)CSSC[C@@H](C(N)=O)NC(=O)[C@H]([C@@H](C)O)NC(=O)[C@H]([C@@H](C)CC)NC(=O)[C@H](CCCNC(=N)N)NC(=O)[C@H](CCC(N)=O)NC1=O
- Kd [2]: 57 µM

B2: K238 Ac-A-K(N3)-…-NH2 (S) (peptide)
peptide: Ac-A[Lys(N3)]VGSPKNAVPPC-NH2
modifications: thioether 1-13
SMILES: CC(=O)N[C@H]1CSC[C@@H](C(N)=O)NC(=O)[C@@H]2CCCN2C(=O)[C@@H]2CCCN2C(=O)[C@H](C(C)C)NC(=O)[C@H](C)NC(=O)[C@H](CC(N)=O)NC(=O)[C@H](CCCCN)NC(=O)[C@@H]2CCCN2C(=O)[C@H](CO)NC(=O)CNC(=O)[C@H](C(C)C)NC(=O)[C@H](CCCCN=[N+]=[N-])NC1=O
- Kd [3]: 105 µM

B3: K343/K346 Ac-C-K(N3)-…-NH2 (S-S) (peptide)
peptide: Ac-C[Lys(N3)]GEVAKAAKVKC-NH2
modifications: disulfide 1-13
SMILES: CC(=O)N[C@H]1CSSC[C@@H](C(N)=O)NC(=O)[C@H](CCCCN)NC(=O)[C@H](C(C)C)NC(=O)[C@H](CCCCN)NC(=O)[C@H](C)NC(=O)[C@H](C)NC(=O)[C@H](CCCCN)NC(=O)[C@H](C)NC(=O)[C@H](C(C)C)NC(=O)[C@H](CCC(=O)O)NC(=O)CNC(=O)[C@H](CCCCN=[N+]=[N-])NC1=O
- Kd [4]: 47 µM

B4: IL-33: recombinant interleukin-33 cytokine, ligand of ST2 (protein, UniProt O95760 1-270, looked up)
Interleukin-33: MKPKMKYSTNKISTAKWKNTASKALCFKLGKSQQKAKEVCPMYFMKLRSGLMIKKEACYFRRETTKRPSLKTGRKHKRHLVLAACQQQSTVECFAFGISGVQKYTRALHDSSITGISPITEYLASLSTYNDQSITFALEDESYEIYVEDLKKDEKKDKVLLSYYESQHPSNESGDGVDGKMLMVTLSPTKDFWLHANNKEHSVELHKCEKPLPDQAFFVLHNMHSNCVSFECKTDPGVFIGVKDNHLALIKVDSSENLCTENILFKLSET
- Kd (ST2): 0.026 nM

B5: MSTOP prototype (Multivalent Specific Topology-targeting DNA-Origami Peptide Inhibitor): 3-way junction DNA scaffold carrying three cyclized azidolysine … (designed binder)
peptide 1: Ac-CKEYGIQRITC-NH2
peptide 2: Ac-AKVGSPKNAVPPC-NH2
peptide 3: Ac-CKGEVAKAAKVKC-NH2
modifications: disulfide I:1-I:11, III:1-III:13; thioether II:1-II:13; not fully specified (some residues); also: three peptides held on a 3-way junction DNA scaffold via DBCO staple strands
- fold increase in affinity compared to the individual peptides and IL-1RAcP [5]: 100 fold
- IL-33 induced SEAP expression (HEK-Blue IL-33 reporter cells, 1 µM MSTOP) [6]: 40 % reduction
- reduction in trimer formation [7]: 70%
- Kd [8]: 0.195 µM
- Kd [9]: 0.127 µM
- reduction of trimer formation [10]: 40%
- fold increase in efficiency against the 10 µM WT peptide treatment [11]: 100 fold
